Target: T1, human IL-10 receptor (human) (UniProt Q13651)
T1 sequence 1: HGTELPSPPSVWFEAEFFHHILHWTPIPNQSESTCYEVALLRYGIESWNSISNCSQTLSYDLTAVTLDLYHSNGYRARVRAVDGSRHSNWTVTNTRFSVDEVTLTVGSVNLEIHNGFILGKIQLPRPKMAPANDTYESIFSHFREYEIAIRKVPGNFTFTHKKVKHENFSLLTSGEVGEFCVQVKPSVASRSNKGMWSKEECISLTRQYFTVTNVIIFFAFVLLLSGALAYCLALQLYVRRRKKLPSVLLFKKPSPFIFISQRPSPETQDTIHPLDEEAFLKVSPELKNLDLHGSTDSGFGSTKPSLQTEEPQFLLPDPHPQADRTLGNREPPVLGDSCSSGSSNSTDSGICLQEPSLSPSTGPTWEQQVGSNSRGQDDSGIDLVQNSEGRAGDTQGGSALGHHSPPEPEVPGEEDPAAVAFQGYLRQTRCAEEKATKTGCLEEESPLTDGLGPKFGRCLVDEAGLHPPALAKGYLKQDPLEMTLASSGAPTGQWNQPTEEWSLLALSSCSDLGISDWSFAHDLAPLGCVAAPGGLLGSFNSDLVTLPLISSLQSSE
T1 sequence 2: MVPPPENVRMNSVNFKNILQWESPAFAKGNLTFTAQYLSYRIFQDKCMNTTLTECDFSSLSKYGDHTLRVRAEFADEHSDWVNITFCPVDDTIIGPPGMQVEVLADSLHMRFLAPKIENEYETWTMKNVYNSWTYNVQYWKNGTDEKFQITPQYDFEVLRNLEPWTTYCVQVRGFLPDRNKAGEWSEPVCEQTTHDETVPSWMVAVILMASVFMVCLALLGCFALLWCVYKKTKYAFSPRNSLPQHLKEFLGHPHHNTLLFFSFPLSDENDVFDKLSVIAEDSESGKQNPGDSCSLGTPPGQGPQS

Chain of recombinant bovine IL-10 (P43480 19-178): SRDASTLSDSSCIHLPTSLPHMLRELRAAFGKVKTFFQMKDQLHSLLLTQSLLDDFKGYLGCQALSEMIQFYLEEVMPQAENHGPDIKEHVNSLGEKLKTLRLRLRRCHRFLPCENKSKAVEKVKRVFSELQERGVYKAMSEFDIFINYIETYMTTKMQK

- CD83 expression by LPS stimulated DCs, average percentage compared to cells only stimulated with LPS; bovine IL-10 0.25-20 ng/ml (130.5 at 0.25 ng/ml falling to 38.2 at 20 ng/ml) (% of cells only stimulated with LPS): 130
- CD86 expression by LPS stimulated DCs, average percentage compared to cells only stimulated with LPS; bovine IL-10 0.25-20 ng/ml (106.3 at 0.25 ng/ml falling to 51.0 at 20 ng/ml) (% of cells only stimulated with LPS): 106
- IL-1β production by LPS stimulated monocytes with 10 ng/ml bovine IL-10, average percentage compared to cells only stimulated with LPS (% of cells only stimulated with LPS): 30.3
- IL-12 production by LPS stimulated DCs, average percentage compared to cells only stimulated with LPS; bovine IL-10 0.25-20 ng/ml (102.9 at 0.25 ng/ml falling to 1.5 at 20 ng/ml) (% of cells only stimulated with LPS): 103
- TNF-α production by LPS stimulated DCs, average percentage compared to cells only stimulated with LPS; bovine IL-10 0.25-20 ng/ml (143.9 at 0.25 ng/ml falling to 0.9 at 20 ng/ml) (% of cells only stimulated with LPS): 144
- TNF-α production by LPS stimulated monocytes with 10 ng/ml bovine IL-10, average percentage compared to cells only stimulated with LPS (% of cells only stimulated with LPS): 14.2
Substance: recombinant bovine IL-10 (from UniProt P43480 19-178) (ligand)

Source: paper PMC3064667
